Measured values reported in PMC2722981.

Target: PCBP1 KH1/2 (mouse, UniProt P60335 13-170)
Assay: filter binding

Chain of PCBP1 KH1/2 (P60335 13-170): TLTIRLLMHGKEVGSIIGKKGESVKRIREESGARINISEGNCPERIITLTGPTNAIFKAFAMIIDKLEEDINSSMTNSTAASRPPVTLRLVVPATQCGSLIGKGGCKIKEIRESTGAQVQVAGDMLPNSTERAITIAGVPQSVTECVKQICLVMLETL

B1: R7a1 (structured_RNA)
RNA: GGAGUGACCUUCUCAACUUUAUAUUCCCUUUACCCCUUCCCCCAAGGCACU
Kd: 42.3 ± 12 nM
